# Target: HLA-A*02:01 (Homo sapiens, UniProt P04439, D140Y/D185E/D98H/E176V/E277Q/G131W/G231S/I119V/I121R/I166T/I218V/L300P/L318F/N151K/N90K/P208A/P217A/Q86G/Q94H/R138H/R169H/T345S)
# Assay: MHC binding assay (UV-ligand exchange, β2m ELISA, peptide exchange yield)
# Conditions: binding to HLA-A*02:01
# In short: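 Peptide-HLA-A*02:01 complexes formed by UV-mediated exchange of a photocleavable ligand; exchange yield measured by streptavidin-capture ELISA detecting β2m with HRP anti-β2m, TMB read at 450 nm. Refolded monomer standards 15-500 ng/ml; samples diluted 100-fold.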
row,"Peptide Exchange (MHC class I binding score, peptide exchange yield)",Substance
1,“+++” (>50 = +++),249 (LLPTGVFQV; listed as Homo sapiens) [compound 249]
2,“+++” (>50 = +++),250 (LLVQEPDGLMV; listed as Homo sapiens) [compound 250]
3,“+++” (>50 = +++),251 (LLYDNVPGA; listed as Homo sapiens) [compound 251]
4,“+++” (>50 = +++),252 (NLLDPGSSYLL; listed as Homo sapiens) [compound 252]
5,“+++” (>50 = +++),253 (NLWSVDGEVTV; listed as Homo sapiens) [compound 253]
6,“+++” (>50 = +++),254 (QLIPKLIFL; listed as Homo sapiens) [compound 254]
7,“+++” (>50 = +++),255 (YLFEEAISM; listed as Homo sapiens) [compound 255]
8,“+++” (>50 = +++),256 (QLLPVSNVVSV; listed as Homo sapiens) [compound 256]
9,“+++” (>50 = +++),258 (RLDYITAEI; listed as Homo sapiens) [compound 258]
10,“+++” (>50 = +++),259 (RLLDEQFAVL; listed as Homo sapiens) [compound 259]
11,“+++” (>50 = +++),260 (SLDDVEGMSV; listed as Homo sapiens) [compound 260]
12,“+++” (>50 = +++),261 (SLVEAQGWLV; listed as Homo sapiens) [compound 261]
13,“+++” (>50 = +++),262 (SLWNAGTSV; listed as Homo sapiens) [compound 262]
14,“+++” (>50 = +++),263 (SQWEDIHVV; listed as Homo sapiens) [compound 263]
15,“+++” (>50 = +++),264 (TILDYINVV; listed as Homo sapiens) [compound 264]
16,“+++” (>50 = +++),265 (TLLADDLEIKL; listed as Homo sapiens) [compound 265]
17,“++” (>20% = ++),266 (TLLDQLDTQL; listed as Homo sapiens) [compound 266]
18,“+++” (>50 = +++),267 (TLLDWQDSL; listed as Homo sapiens) [compound 267]
19,“+++” (>50 = +++),268 (TLLQVFHLL; listed as Homo sapiens) [compound 268]
20,“++” (>20% = ++),269 (TLTDEQFLV; listed as Homo sapiens) [compound 269]
21,“+++” (>50 = +++),270 (TVLPVPPLSV; listed as Homo sapiens) [compound 270]
22,“++” (>20% = ++),271 (VIRNIVEAA; listed as Homo sapiens) [compound 271]
23,“+++” (>50 = +++),272 (VLDELPPLI; listed as Homo sapiens) [compound 272]

row,"Peptide Exchange (MHC class I binding score, peptide exchange yield)",Substance
1,“+++” (>50 = +++),273 (VLGEYSYLL; listed as Homo sapiens) [compound 273]
2,“+++” (>50 = +++),274 (VLLEYHIAYL; listed as Homo sapiens) [compound 274]
3,“+++” (>50 = +++),275 (VLLFIEHSV; listed as Homo sapiens) [compound 275]
4,“+++” (>50 = +++),276 (VLNDGAPNV; listed as Homo sapiens) [compound 276]
5,“++” (>20% = ++),277 (VMILKLPFL; listed as Homo sapiens) [compound 277]
6,“+++” (>50 = +++),278 (YLDDLLPKL; listed as Homo sapiens) [compound 278]
7,“+++” (>50 = +++),279 (YMAPEVVEA; listed as Homo sapiens) [compound 279]
8,“+++” (>50 = +++),280 (YTLDSLYWSV; listed as Homo sapiens) [compound 280]
9,“+++” (>50 = +++),282 (LLRDGIELV; listed as Homo sapiens) [compound 282]
10,“+++” (>50 = +++),283 (ILQPMDIHV; listed as Homo sapiens) [compound 283]
11,“++” (>20% = ++),284 (LLSAAEPVPA; listed as Homo sapiens) [compound 284]
12,“++++” (>75% = ++++),285 (GVATAGCVNEV; listed as Homo sapiens) [compound 285]
13,“+++” (>50 = +++),286 (FLLEDLSQKL; listed as Homo sapiens) [compound 286]
14,“++++” (>75% = ++++),287 (FLWEEKFNSL; listed as Homo sapiens) [compound 287]
15,“+++” (>50 = +++),288 (GLAESTGLLAV; listed as Homo sapiens) [compound 288]
16,“+++” (>50 = +++),289 (ILEEQPMDMLL; listed as Homo sapiens) [compound 289]
17,“+++” (>50 = +++),291 (ILLNEDDLVTI; listed as Homo sapiens) [compound 291]
18,“+++” (>50 = +++),292 (AAALIIHHV; listed as Homo sapiens) [compound 292]
19,“+++” (>50 = +++),293 (ALDIMIPMV; listed as Homo sapiens) [compound 293]
20,“++++” (>75% = ++++),294 (ALLDQLHTLL; listed as Homo sapiens) [compound 294]
21,“+++” (>50 = +++),295 (ALLQKLQQL; listed as Homo sapiens) [compound 295]
22,“++” (>20% = ++),296 (FIAPTGHSL; listed as Homo sapiens) [compound 296]
23,“+++” (>50 = +++),297 (FLVEPQEDTRL; listed as Homo sapiens) [compound 297]

row,"Peptide Exchange (MHC class I binding score, peptide exchange yield)",Substance
1,“+++” (>50 = +++),298 (IILPVEVEV; listed as Homo sapiens) [compound 298]
2,“+++” (>50 = +++),299 (ILEENIPVL; listed as Homo sapiens) [compound 299]
3,“+++” (>50 = +++),300 (ILLNPAYDVYL; listed as Homo sapiens) [compound 300]
4,“+++” (>50 = +++),301 (AASPIITLV; listed as Homo sapiens) [compound 301]
5,“+++” (>50 = +++),302 (ILQDLTFVHL; listed as Homo sapiens) [compound 302]
6,“+++” (>50 = +++),303 (ILSQPTPSL; listed as Homo sapiens) [compound 303]
7,“+” (>10% = +),304 (LAIVPVNTL; listed as Homo sapiens) [compound 304]
8,“+++” (>50 = +++),305 (LLFPQIEGIKI; listed as Homo sapiens) [compound 305]
9,“++” (>20% = ++),306 (VVAEELENV; listed as Homo sapiens) [compound 306]
10,“++++” (>75% = ++++),308 (SLYDVSRMYV; listed as Homo sapiens) [compound 308]
11,“+++” (>50 = +++),309 (ILYGTQFVL; listed as Homo sapiens) [compound 309]
12,“+++” (>50 = +++),310 (LLSTLHLLV; listed as Homo sapiens) [compound 310]
13,“+++” (>50 = +++),311 (LLVDVEPKV; listed as Homo sapiens) [compound 311]
14,“+++” (>50 = +++),312 (LLYNSTDPTL; listed as Homo sapiens) [compound 312]
15,“+++” (>50 = +++),313 (LMADLEGLHL; listed as Homo sapiens) [compound 313]
16,“+++” (>50 = +++),314 (LMKDCEAEV; listed as Homo sapiens) [compound 314]
17,“+++” (>50 = +++),315 (LVYEAPETV; listed as Homo sapiens) [compound 315]
18,“+++” (>50 = +++),316 (MLLEHGITL; listed as Homo sapiens) [compound 316]
19,“+++” (>50 = +++),317 (NLLAHIWAL; listed as Homo sapiens) [compound 317]
20,“+++” (>50 = +++),318 (NLQVTQPTV; listed as Homo sapiens) [compound 318]
21,“+++” (>50 = +++),319 (QVIPQLQTV; listed as Homo sapiens) [compound 319]
